{"source": "patent US20120213699A1", "about": "(BOARD OF TRUSTEES OF THE UNIVERSITY OF ILLINOIS, published 2012)", "binders": {"B1": {"name": "scFv 9B9 expressed on the phage surface (phages with the λ fragment) (scFv)", "scFv": "QVQLKESGPGLVAPSQSLSITCTVSGFSLTTYGVHWVRQPPGKGLEWLGVIWGGGNTNYNSALMSRLNITKDNSKRQVFLKMNSLQADDTGMYYCARGWDSWGQGTTLTVSSAKTTPPKLEEGEFSEARVQAVVTQESALTTSPGETVTLTCRSSTGAVTTNNYANWVQENPDHLFTGLIDGTNTRSPGVPARFSGSLIGDKAALTITGAQTEDEAIYFCALWYSNHWVFGGGTKLTVLGQ", "notes": "also called scFv 9B9 phages; 9B9 scFv phages; not shown: phage coat protein fusion partner from phagemid pSEX 81"}}, "target": "T1, BSA (UniProt P02769 25-607)", "T1 construct": "Negative control coating; also called bovine serum albumin", "T1 sequence (P02769 25-607 limits assumed)": "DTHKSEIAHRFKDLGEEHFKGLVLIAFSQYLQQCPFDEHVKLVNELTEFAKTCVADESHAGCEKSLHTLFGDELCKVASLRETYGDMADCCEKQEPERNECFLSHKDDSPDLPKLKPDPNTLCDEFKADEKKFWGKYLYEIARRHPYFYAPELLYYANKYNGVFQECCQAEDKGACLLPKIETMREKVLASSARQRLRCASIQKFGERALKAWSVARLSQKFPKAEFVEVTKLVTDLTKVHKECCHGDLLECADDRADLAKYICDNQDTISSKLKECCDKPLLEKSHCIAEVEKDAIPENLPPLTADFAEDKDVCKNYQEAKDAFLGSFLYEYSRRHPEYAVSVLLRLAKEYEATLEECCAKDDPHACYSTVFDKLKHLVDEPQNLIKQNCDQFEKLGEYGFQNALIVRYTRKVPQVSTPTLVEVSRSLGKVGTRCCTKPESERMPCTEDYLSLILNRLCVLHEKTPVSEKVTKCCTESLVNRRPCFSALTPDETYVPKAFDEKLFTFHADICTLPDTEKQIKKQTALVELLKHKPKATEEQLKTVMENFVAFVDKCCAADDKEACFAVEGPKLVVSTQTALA", "assay": "phage ELISA on coated plates, anti-M13 peroxidase", "data": [{"binder": "B1", "values": [{"measurement": "binding result", "result": "no binding (tested: 5 µg/ml (coating))"}]}]}
